Consider 42 molecules from paper PMC5913336, “True equilibrium measurement of transcription factor-DNA binding affinities using automated polarization microscopy”.

Data set [1] concerns Giant DBD-GST (Gt). Kind of data set: competitive fluorescence anisotropy (HiP-FA). The settings on record: HiP-FA: 33 mM phosphate pH 7.0, 90 mM NaCl, 0.01% Tween 20, 0.1 mM DTT, 0.5% agarose; conventional titration and EMSA: 20 mM Tris-acetate pH 7.0, 50 nM …. (In general: In EMSA bound probe runs differently from free probe, usually more slowly.)
Data set [2] has as its system Ttk-F DBD-GST. Kind of data set: competitive fluorescence anisotropy (HiP-FA). The settings on record: HiP-FA: 33 mM phosphate pH 7.0, 90 mM NaCl, 0.01% Tween 20, 0.1 mM DTT, 0.5% agarose; conventional titration and EMSA: 20 mM Tris-acetate pH 7.0, 50 nM ….
For data set [3], the system named is Caudal DBD-GST (Cad). Kind of data set: competitive fluorescence anisotropy (conventional titration). The following applies: HiP-FA: 33 mM phosphate pH 7.0, 90 mM NaCl, 0.01% Tween 20, 0.1 mM DTT, 0.5% agarose; conventional titration and EMSA: 20 mM Tris-acetate pH 7.0, 50 nM ….
For data set [4], the target named is T1, Bcd homeodomain (Drosophila melanogaster, UniProt P09081-2 77-166).
T1 sequence: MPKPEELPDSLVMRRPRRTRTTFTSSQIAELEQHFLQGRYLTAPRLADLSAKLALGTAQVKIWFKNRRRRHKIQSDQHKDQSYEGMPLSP
Kind of data set: FP; 33 mM phosphate pH 7.0, 90 mM NaCl, 0.01% Tween 20, 0.1 mM DTT, 0.5% agarose; room temperature. The following applies: tags: N-GST (pGEX-6P-1, kept).

Data set [5] deals with T2, Bicoid DBD-GST (Bcd) (UniProt P09081 83-170).
T2 sequence: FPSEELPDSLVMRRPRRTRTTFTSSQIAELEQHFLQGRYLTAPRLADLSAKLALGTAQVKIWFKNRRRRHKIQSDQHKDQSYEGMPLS
Kind of data set: competitive fluorescence anisotropy (HiP-FA); mean of replicates 2.83, 2.8405; HiP-FA: 33 mM phosphate pH 7.0, 90 mM NaCl, 0.01% Tween 20, 0.1 mM DTT, 0.5% agarose; conventional titration and EMSA: 20 mM Tris-acetate pH 7.0, 50 nM (sic) NaCl, 0.01% Tween-20, 0.1 mM DTT. The following applies: protein: recombinant; tags: N-terminal GST; blunt, G:G mismatch at position 6.

The target of data set [6] is T2, Bicoid DBD-GST (Bcd). Kind of data set: EMSA; direct titration; HiP-FA: 33 mM phosphate pH 7.0, 90 mM NaCl, 0.01% Tween 20, 0.1 mM DTT, 0.5% agarose; conventional titration and EMSA: 20 mM Tris-acetate pH 7.0, 50 nM (sic) NaCl, 0.01% Tween-20, 0.1 mM DTT. The settings on record: protein: recombinant; tags: N-terminal GST; label: Cy3; blunt.
In data set [7] the target is T2, Bicoid DBD-GST (Bcd). Kind of data set: competitive fluorescence anisotropy (HiP-FA); mean of replicates 18.854, 22.285; HiP-FA: 33 mM phosphate pH 7.0, 90 mM NaCl, 0.01% Tween 20, 0.1 mM DTT, 0.5% agarose; conventional titration and EMSA: 20 mM Tris-acetate pH 7.0, 50 nM (sic) NaCl, 0.01% Tween-20, 0.1 mM DTT. The following applies: protein: recombinant; tags: N-terminal GST; blunt, G:G mismatch at position 6.

In data set [8] the target is T2, Bicoid DBD-GST (Bcd). Briefly: competitive fluorescence anisotropy (HiP-FA); HiP-FA: 33 mM phosphate pH 7.0, 90 mM NaCl, 0.01% Tween 20, 0.1 mM DTT, 0.5% agarose; conventional titration and EMSA: 20 mM Tris-acetate pH 7.0, 50 nM (sic) NaCl, 0.01% Tween-20, 0.1 mM DTT. The following applies: protein: recombinant; tags: N-terminal GST; blunt.
In data set [9] the target is T2, Bicoid DBD-GST (Bcd). Kind of data set: competitive fluorescence anisotropy (HiP-FA); mean of replicates 3.766, 3.8365; HiP-FA: 33 mM phosphate pH 7.0, 90 mM NaCl, 0.01% Tween 20, 0.1 mM DTT, 0.5% agarose; conventional titration and EMSA: 20 mM Tris-acetate pH 7.0, 50 nM (sic) NaCl, 0.01% Tween-20, 0.1 mM DTT. The settings on record: protein: recombinant; tags: N-terminal GST; blunt, G:G mismatch at position 6.

Setting [10] is: printed reverse strand differs at base 6 of strand 1 (G / C), complement of the forward strand used.

For the molecule Gt consensus oligo, in data set [1], the Kd (usually the equilibrium constant for the complex coming apart) was 0.9 nM.
For the molecule Ttk-F consensus oligo, in [2], the dissociation constant (Kd) was found to be 48 nM.
Take Cad consensus oligo: in data set [3], the Kd was found to be 0.05 nM.

B1: Bcd oligo 13 (dsDNA)
DNA 1: TCGACGGTCATCCCTA
DNA 2: TAGGGATGACCGTCGA
The molecule B1 registered a Kd in [4] (setting [10]) of 64.3 nM.

B2: Bcd oligo 25 (dsDNA)
DNA 1: TCGACGGTAATCGCTA
DNA 2: TAGCGATTACCGTCGA
In [4] (setting [10]), B2 came in with a Kd of 14.1 nM.

B3: Bcd oligo 14 (dsDNA)
DNA 1: TCGACGGTGATCCCTA
DNA 2: TAGGGATCACCGTCGA
For the molecule B3, the Kd in data set [4] (setting [10]) is 8.98 nM.

B4: Bcd oligo 5 (dsDNA)
DNA 1: TCGACTGTAATCCCTA
DNA 2: TAGGGATTACAGTCGA
B4: the affinity in [4], expressed as Kd, was 6.66 nM.

B5: Bcd oligo 18 (dsDNA)
DNA 1: TCGACGGTATTCCCTA
DNA 2: TAGGGAATACCGTCGA
B5 returned an equilibrium dissociation constant (Kd) in [4] (setting [10]) of 128 nM.

B6: Bcd oligo 12 (dsDNA)
DNA 1: TCGACGGAAATCCCTA
DNA 2: TAGGGATTTCCGTCGA
Take B6: the affinity in data set [4] (setting [10]), expressed as Kd, was 12.9 nM.

B7: Bcd oligo 10 (dsDNA)
DNA 1: TCGACGGCAATCCCTA
DNA 2: TAGGGATTGCCGTCGA
The molecule B7 showed a dissociation constant (Kd) in [4] (setting [10]) of 20.6 nM.

B8: Bcd competitor 8 (G3T) (dsDNA)
DNA 1: TCGACGTTAATCCCTA
DNA 2: TAGGGATTAAGGTCGA
Turning to B8, the equilibrium dissociation constant (Kd) in [5] was 2.83 nM.

B9: Bcd oligo 29 (dsDNA)
DNA 1: TCGACGGTAATCCTTA
DNA 2: TAAGGATTACCGTCGA
As for B9, binding in [4] (setting [10]) was put at a Kd of 4.03 nM.

B10: Bcd oligo 19 (dsDNA)
DNA 1: TCGACGGTAACCCCTA
DNA 2: TAGGGGTTACCGTCGA
B10: in data set [4] (setting [10]), the affinity, expressed as Kd, was 94.1 nM.

B11: Bcd oligo 15 (dsDNA)
DNA 1: TCGACGGTTATCCCTA
DNA 2: TAGGGATAACCGTCGA
For B11, in [4] (setting [10]), the Kd came out at 29.4 nM.

B12: Bcd oligo 31 (dsDNA)
DNA 1: TCGACGGTAATCCCCA
DNA 2: TGGGGATTACCGTCGA
Molecule B12 came in with a Kd in data set [4] (setting [10]) of 3.8 nM.

B13: Bcd oligo 16 (dsDNA)
DNA 1: TCGACGGTACTCCCTA
DNA 2: TAGGGAGTACCGTCGA
On to B13, for which binding in data set [4] (setting [10]) was characterised by a dissociation constant (Kd) of 146 nM.

B14: Bcd EMSA 16-mer (dsDNA)
DNA 1: TCGACCGTAATCCCTA
DNA 2: TAGGGATTACGGTCGA
With B14, in data set [6], the dissociation constant Kd amounted to 1.8 ± 0.2 nM.

B15: Bcd oligo 28 (dsDNA)
DNA 1: TCGACGGTAATCCGTA
DNA 2: TACGGATTACCGTCGA
B15: binding in data set [4] (setting [10]) was characterised by a dissociation constant (Kd) of 3.67 nM.

B16: Bcd oligo 4 (dsDNA)
DNA 1: TCGACCGTAATCCCTA
DNA 2: TAGGGATTACGGTCGA
Take B16: binding in data set [4] (setting [10]) was characterised by a dissociation constant (Kd) of 5.02 nM.

B17: Bcd oligo 33 (dsDNA)
DNA 1: TCGACGGTAATCCCAA
DNA 2: TTGGGATTACCGTCGA
B17 came in with a Kd in data set [4] (setting [10]) of 4.71 nM.

B18: Bcd oligo 27 (dsDNA)
DNA 1: TCGACGGTAATCACTA
DNA 2: TAGTGATTACCGTCGA
In data set [4] (setting [10]), B18 had a dissociation constant Kd of 12.7 nM.

B19: Bcd oligo 7 (dsDNA)
DNA 1: TCGACGCTAATCCCTA
DNA 2: TAGGGATTAGCGTCGA
In turn, B19 yielded a Kd in data set [4] (setting [10]) of 2.79 nM.

B20: Bcd oligo 20 (dsDNA)
DNA 1: TCGACGGTAAGCCCTA
DNA 2: TAGGGCTTACCGTCGA
The molecule B20 registered a dissociation constant (Kd) in data set [4] (setting [10]) of 18.8 nM.

B21: Bcd oligo 21 (dsDNA)
DNA 1: TCGACGGTAAACCCTA
DNA 2: TAGGGTTTACCGTCGA
In turn, B21 yielded a Kd in data set [4] (setting [10]) of 48.8 nM.

B22: Bcd oligo 22 (dsDNA)
DNA 1: TCGACGGTAATGCCTA
DNA 2: TAGGCATTACCGTCGA
As for B22, in [4] (setting [10]), the dissociation constant Kd was determined as 92.1 nM.

B23: Bcd competitor 10 (T4C) (dsDNA)
DNA 1: TCGACGGCAATCCCTA
DNA 2: TAGGGATTGCGGTCGA
With B23, the Kd in data set [7] is 20.6 nM.

B24: Bcd oligo 1 (dsDNA)
DNA 1: TCGAGGGTAATCCCTA
DNA 2: TAGGGATTACCCTCGA
In the case of B24, binding in [4] (setting [10]) was characterised by a dissociation constant (Kd) of 2.7 nM.

B25: Bcd oligo 2 (dsDNA)
DNA 1: TCGATGGTAATCCCTA
DNA 2: TAGGGATTACCATCGA
With B25, the affinity in [4] (setting [10]), expressed as Kd, was 2.66 nM.

B26: Bcd oligo 6 (dsDNA)
DNA 1: TCGACAGTAATCCCTA
DNA 2: TAGGGATTACTGTCGA
Turning to B26, in data set [4], the Kd was 5.86 nM.

B27: Bcd oligo 17 (dsDNA)
DNA 1: TCGACGGTAGTCCCTA
DNA 2: TAGGGACTACCGTCGA
Molecule B27 showed a Kd in [4] (setting [10]) of 45.8 nM.

B28: Bcd oligo 30 (dsDNA)
DNA 1: TCGACGGTAATCCATA
DNA 2: TATGGATTACCGTCGA
In data set [4] (setting [10]), B28 displayed a Kd of 5.18 nM.

B29: Bcd consensus (dsDNA)
DNA 1: TCGACGGTAATCCCTA
DNA 2: TAGGGATTACCGTCGA
Turning to B29, the Kd in data set [4] was determined as 2.2 nM.

B30: Bcd consensus CGGTAATCCCT (dsDNA)
DNA 1: TCGACGGTAATCCCTA
DNA 2: TAGGGATTACCGTCGA
With B30, the dissociation constant (Kd) in data set [8] came out at 2.2 nM.

B31: Bcd competitor 9 (G3A) (dsDNA)
DNA 1: TCGACGATAATCCCTA
DNA 2: TAGGGATTATGGTCGA
As for B31, the dissociation constant (Kd) in data set [9] amounted to 3.8 nM.

B32: Bcd oligo 11 (dsDNA)
DNA 1: TCGACGGGAATCCCTA
DNA 2: TAGGGATTCCCGTCGA
As for B32, the dissociation constant Kd in data set [4] (setting [10]) is 21.4 nM.

B33: Bcd oligo 23 (dsDNA)
DNA 1: TCGACGGTAATTCCTA
DNA 2: TAGGAATTACCGTCGA
B33: the Kd in data set [4] (setting [10]) came out at 27.2 nM.

B34: Bcd oligo 26 (dsDNA)
DNA 1: TCGACGGTAATCTCTA
DNA 2: TAGAGATTACCGTCGA
In data set [4] (setting [10]), B34 showed an equilibrium dissociation constant (Kd) of 7.79 nM.

B35: Bcd oligo 9 (dsDNA)
DNA 1: TCGACGATAATCCCTA
DNA 2: TAGGGATTATCGTCGA
With B35, in data set [4] (setting [10]), the Kd was determined as 3.8 nM.

B36: Bcd oligo 8 (dsDNA)
DNA 1: TCGACGTTAATCCCTA
DNA 2: TAGGGATTAACGTCGA
B36 had a dissociation constant (Kd) in data set [4] (setting [10]) of 2.83 nM.

B37: Bcd oligo 24 (dsDNA)
DNA 1: TCGACGGTAATACCTA
DNA 2: TAGGTATTACCGTCGA
As to B37, the affinity in [4] (setting [10]), expressed as Kd, was 47.8 nM.

B38: Bcd oligo 3 (dsDNA)
DNA 1: TCGAAGGTAATCCCTA
DNA 2: TAGGGATTACCTTCGA
As to B38, the affinity in data set [4] (setting [10]), expressed as Kd, was 3.76 nM.

B39: Bcd oligo 32 (dsDNA)
DNA 1: TCGACGGTAATCCCGA
DNA 2: TCGGGATTACCGTCGA
B39 showed a Kd in [4] (setting [10]) of 5.08 nM.
